Paper PMC10897456, “B. subtilis MutS2 splits stalled ribosomes into subunits without mRNA cleavage” (The EMBO Journal, 2023)

What was measured:
Experiment in all cases: cryo-EM structure; reconstituted complex: His-MutS2 WT in tenfold excess over purified B. subtilis disomes, 50 mM HEPES/KOH pH 7.5, 75 mM KOAc, 5 mM Mg(OAc)2, 45 mM NH4Cl, 4 mM MgCl2, 1 mM MnCl2, 1 mM AMP-PNP, 30 °C for 1 h; 3.8 Å
Conditions in all cases: both partners purified
ribosomal protein uS7 = ribosomal protein uS7 (B. subtilis (endogenous in B. subtilis …, UniProt P21469 1-156))
ribosomal protein uS10 = ribosomal protein uS10 (B. subtilis (endogenous in B. subtilis …, UniProt P21471 1-102))
ribosomal protein uS11 = ribosomal protein uS11 (B. subtilis (endogenous in B. subtilis …, UniProt P04969 1-131))

Measured: binding result

B1: His-MutS2 WT (recombinant B. subtilis MutS2) (natural protein)
chain: MQQKVLSALEFHKVKEQVIGHAASSLGKEMLLELKPSASIDEIKKQLDEVDEASDIIRLRGQAPFGGLVDIRGALRRAEIGSVLSPSEFTEISGLLYAVKQMKHFITQMAEDGVDIPLIHQHAEQLITLSDLERDINSCIDDHGEVLDHASETLRGIRTQLRTLESRVRDRLESMLRSSSASKMLSDTIVTIRNDRFVIPVKQEYRSSYGGIVHDTSSSGATLFIEPQAIVDMNNSLQQAKVKEKQEIERILRVLTEKTAEYTEELFLDLQVLQTLDFIFAKARYAKAVKATKPIMNDTGFIRLKKARHPLLPPDQVVANDIELGRDFSTIVITGPNTGGKTVTLKTLGLLTLMAQSGLHIPADEGSEAAVFEHVFADIGDEQSIEQSLSTFSSHMVNIVGILEQVNENSLVLFDELGAGTDPQEGAALAMSILDDVHRTNARVLATTHYPELKAYGYNREGVMNASVEFDIETLSPTYKLLIGVPGRSNAFEISKRLGLPDHIIGQAKSEMTAEHNEVDTMIASLEQSKKRAEEELSETESIRKEAEKLHKELQQQIIELNSKKDKMLEEAEQQAAEKVKAAMKEAEDIIHELRTIKEEHKSFKDHELINAKKRLEGAMPAFEKSKKPEKPKTQKRDFKPGDEVKVLTFGQKGTLLEKTGGNEWNVQIGILKMKVKEKDLEFIKSAPEPKKEKMITAVKGKDYHVSLELDLRGERYENALSRVEKYLDDAVLAGYPRVSIIHGKGTGALRKGVQDLLKNHRSVKSSRFGEAGEGGSGVTVVELK
notes: MutS2 of B. subtilis (87 kD); core/lever, clamp, P-loop ABC ATPase, KOW and SMR domains; SMR domain printed as residues 710-785; SEC: oligomer, consistent with a dimer or tetramer; the text calls it a homodimer on the disome; Only the KOW and SMR domains are resolved in the structure (AlphaFold2 models fitted as rigid bodies); also called RqcU; source: E. coli BL21(DE3), pET24d(+), purified …
binds: ribosomal protein uS7 | ribosomal protein uS10 | ribosomal protein uS11
